Measurements as given in paper PMC3158819 (Journal of molecular biology, 2011).

T1: CASK CaMK domain (residues M1-A310) (human, UniProt O14936 1-310)
T1 sequence (looked up): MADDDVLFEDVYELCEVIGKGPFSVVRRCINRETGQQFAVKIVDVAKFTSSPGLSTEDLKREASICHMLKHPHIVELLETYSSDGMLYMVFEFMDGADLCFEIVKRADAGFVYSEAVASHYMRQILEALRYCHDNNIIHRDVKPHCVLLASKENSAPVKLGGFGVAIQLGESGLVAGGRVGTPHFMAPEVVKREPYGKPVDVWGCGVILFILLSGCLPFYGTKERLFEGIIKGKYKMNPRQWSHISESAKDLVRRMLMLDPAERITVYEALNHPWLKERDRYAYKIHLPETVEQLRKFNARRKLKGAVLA


How the values were obtained:
[1] = target: T1, CASK CaMK domain (residues M1-A310); assay: SPR
[2] = target: T1, CASK CaMK domain (residues M1-A310); assay: SEC

Kd [1] | binding result [2] | Binder
7.5 ± 0.5 µM | – | Caskin1 CID (residues I375 to G471) (domain or fragment, UniProt Q8WXD9 375-471, looked up) IWVLRKPFAGGDRSGSISGMAGGRGSGGHALHAGSEGVKLLATVLSQKSVSESGPGDSPAKPPEGSAGVARSQPPVAHAGQVYGEQPPKKLEPASEG
– | binds | Caskin1 CID-SAMs (residues I375 to L605), wild type (domain or fragment) not shown
